Kd data for two substances are collected here from US20020147306A1, “Peptides that modulate the interaction of B class ephrins and PDZ domains” (priority 1998, published 2002).

Assay in all cases: fluorescence polarization, 25 nM fluorescein-labelled peptide, GST fusion titrated, 22 C
In test [1] the target is fluorescein-labelled NIYYKV peptide.
Test [2] addresses fluorescein-labelled NIYpYKV peptide.
Test [3] concerns the target fluorescein-labelled NIpYpYKV peptide.
For test [4], the target named is fluorescein-labelled NIpYYKV peptide.

Chain of GST-FAP-1 PDZ5 fusion protein (P08515 whole entry, the tested form may be a part): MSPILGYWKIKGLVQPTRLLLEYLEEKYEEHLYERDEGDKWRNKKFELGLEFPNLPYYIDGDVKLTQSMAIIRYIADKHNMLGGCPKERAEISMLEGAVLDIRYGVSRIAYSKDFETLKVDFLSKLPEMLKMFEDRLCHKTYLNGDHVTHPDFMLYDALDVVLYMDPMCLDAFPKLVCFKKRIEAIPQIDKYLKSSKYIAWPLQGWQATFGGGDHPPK

What is called Kd is the free concentration of one partner at which half of the binding sites on the other are occupied at equilibrium, for simple one-to-one binding. With “GST-FAP-1 PDZ3 fusion protein (from UniProt Q12923 1368-1452)”, the dissociation constant (Kd) in test [1] stood at 65 µM.
“GST-FAP-1 PDZ5 fusion protein (from UniProt P08515 1-218)”: the Kd is 15.4 µM in test [2], 8.4 µM in test [3], 9.9 µM in test [1] and 6.8 µM in test [4].
